The chains are these.
B1: Azoarcus group I ribozyme (parent)
chain: GUGCCUUGCGCCGGGAAACCACGCAAGGGAUGGUGUCAAAUUCGGCGAAACCUAAGCGCCCGCCCGGGCGUAUGGCAACGCCGAGCCAAGCUUCGGCGCCUGCGCCGAUGAAGGUGUAGAGACUAGACGGCACCCACCUAAGGCAAACGCUAUGGUGAAGGCAUAGUCCAGGGAGUGGCGAAAGUCACACAAACCGG

The variants in the data set derive from B1. The data set can be described thus: reverse-splicing fitness (ratio to wild type); higher = more active; in vitro selection; Mg2+ level not given. The method in brief: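 An in vitro group I ribozyme library with randomized positions was T7-transcribed and gel-purified. In triplicate, 10 pmol RNA in EPPS pH 7.5 was reacted with 50 pmoles of a 30-nt RNA substrate for 1 h at 37 °C across several added MgCl2 levels (1–48 mM), then stopped with EDTA. Products were reverse transcribed from a substrate-complementary primer, PCR-amplified and sequenced (HiSeq 4000). Fitness is a variant's read proportion after selection over that before, normalised to wild type.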
In the case of C82A A111G A120G A145C C169U U176C, the reverse-splicing fitness is 0.0129.
For C82A A111G A120G A145C C169U U176G, the reverse-splicing fitness amounted to 0.00388.
With C82A A111G A120G A145C C169U U176A the figure was 0.0193; with C82A A111G A120G A145G C150A C169G, 0.00854; with C82A A111G A120G A145G C150A C169A, 0.0103.
Regarding C82A A111G A120G A145G C150A C169U, the reverse-splicing fitness is 0.00938.
As for C82A A111G A120G A145C C150U C169G, the reverse-splicing fitness was 0.00885.
With C82A A111G A120G A145C C150U C169U the figure was 0.0082; with C82A A111G A120G A145C C150U C169A, 0.00986; with C82A A111G A120G A145U C150U C169U U176G, 0.00555.
In the case of C82A A111G A120G A145U C150U C169U U176C it was 0.0152; in that of C82A A111G A120G A145U C150U C169U U176A, 0.0192.
With C82A A111G A120G A145U C150A C169G the figure was 0.00871.
As to C82A A111G A120G A145U C150A C169U, the reverse-splicing fitness was found to be 0.00754.
With C82A A111G A120G A145U C150A C169A the figure was 0.00837; with C82A A111G A120G A145U C150U C169A U176C, 0.0116.
With C82A A111G A120G A145U C150U C169A U176G the figure was 0.00488; with C82A A111G A120G A145U C150U C169A U176A, 0.0141.
In the case of C82A A111G A120C C169A U176G it was 0.00575; in that of C82A A111G A120C C169A U176A, 0.0173; in that of C82A A111G A120C C169A U176C, 0.0223.
On to C82A A111G A120G A145G C169A, for which the reverse-splicing fitness was determined as 0.0101.
With C82A A111G A120G A145G C169U the figure was 0.0111.
In the case of C82A A111G A120G A145G C169G it was 0.0122.
With C82A A111G A120U A145C C150A C169G U176C the figure was 0.00235; with C82A A111G A120U A145C C150A C169G U176G, 0.00149.
For the variant C82A A111G A120U A145C C150A C169G U176A, the reverse-splicing fitness was found to be 0.00315.
Turning to C82A A111G A120G A145G C150U C169U U176G, the reverse-splicing fitness came out at 0.00632.
In the case of C82A A111G A120G A145G C150U C169U U176A it was 0.0182; in that of C82A A111G A120G A145G C150U C169U U176C, 0.0165.
With C82A A111G A120C C150G, the reverse-splicing fitness was found to be 0.0106.
In the case of C82A A111G A120C C150U, the reverse-splicing fitness came to 0.0279.
For the variant C82A A111G A120C C169U U176C, the reverse-splicing fitness came out at 0.0138.
In the case of C82A A111G A120C C169U U176A it was 0.016; in that of C82A A111G A120C C169U U176G, 0.00535; in that of C82A A111G A120G A145U C150G C169G U176C, 0.00461.
In the case of C82A A111G A120G A145U C150G C169G U176A it was 0.00739; in that of C82A A111G A120G A145U C150G C169G U176G, 0.00446.
With C82A A111G A120G C150G C169A U176G the figure was 0.00672; with C82A A111G A120G C150G C169A U176A, 0.0117; with C82A A111G A120G C150G C169A U176C, 0.0123.
Consider C82A A111G A120G C169G U176G, for which the reverse-splicing fitness came to 0.00458.
With C82A A111G A120G C169G U176C, the reverse-splicing fitness was determined as 0.0229.
C82A A111G A120G C169G U176A: the reverse-splicing fitness stood at 0.0226.
In the case of C82A A111G A120G A145C C150A C169A U176C it was 0.00609.
With C82A A111G A120G A145C C150A C169A U176A the figure was 0.0118; with C82A A111G A120G A145C C150A C169A U176G, 0.00578; with C82A A111G A120G C150U C169U U176C, 0.0179.
Take C82A A111G A120G C150U C169U U176A: the reverse-splicing fitness amounted to 0.023.
With C82A A111G A120G C150U C169U U176G the figure was 0.00738.
Regarding C82A A111G A120G A145C C169G U176G, the reverse-splicing fitness worked out at 0.0046.
With C82A A111G A120G A145C C169G U176A the figure was 0.0248.
In the case of C82A A111G A120G A145C C169G U176C it was 0.0178; in that of C82A A111G A120U A145C C150G C169A, 0.0025; in that of C82A A111G A120U A145C C150G C169G, 0.00351.
In the case of C82A A111G A120G C150G C169U U176A it was 0.0124.
As for C82A A111G A120G C150G C169U U176C, the reverse-splicing fitness was 0.0135.
In the case of C82A A111G A120G C150G C169U U176G it was 0.00657; in that of C82A A111G A120G A145G C150A C169U U176C, 0.0184.
Regarding C82A A111G A120G A145G C150A C169U U176A, the reverse-splicing fitness amounted to 0.0192.
With C82A A111G A120G A145G C150A C169U U176G the figure was 0.00673.
With C82A A111G A120G A145C C150U C169G U176C, the reverse-splicing fitness came to 0.0123.
With C82A A111G A120G A145C C150U C169G U176A the figure was 0.0242.
C82A A111G A120G A145C C150U C169G U176G: the reverse-splicing fitness worked out at 0.00597.
With C82A A111G A120G A145U C150A C169A U176G the figure was 0.00585; with C82A A111G A120G A145U C150A C169A U176A, 0.0161; with C82A A111G A120G A145U C150A C169A U176C, 0.0121.
With C82A A111G A120G A145G C150G C169G U176C the figure was 0.0114.
In the case of C82A A111G A120G A145G C150G C169G U176G it was 0.00614.
In the case of C82A A111G A120G A145G C150G C169G U176A, the reverse-splicing fitness worked out at 0.0101.
In the case of C82A A111G A120G A145C C169A U176G, the reverse-splicing fitness is 0.00385.
In the case of C82A A111G A120G A145C C169A U176C it was 0.00752; in that of C82A A111G A120G A145C C169A U176A, 0.0117.
With C82A A111G A120G U176G, the reverse-splicing fitness is 0.00613.
With C82A A111G A120G U176A the figure was 0.0146.
With C82A A111G A120G U176C the figure was 0.0182; with C82A A111G A120C U176G, 0.00892; with C82A A111G A120C U176C, 0.032.
With C82A A111G A120C U176A the figure was 0.0208; with C82A A111G A120G A145G C169G U176C, 0.0276.
Regarding C82A A111G A120G A145G C169G U176G, the reverse-splicing fitness was found to be 0.00435.
Turning to C82A A111G A120G A145G C169G U176A, the reverse-splicing fitness was 0.0204.
C82A A111G A120G A145U C150U: the reverse-splicing fitness was 0.0134.
